According to CN110272489A (SHANGHAI JIANXIN BIOPHARMACEUTICALS LLC, dated 2019):
Where a chain is given by its changes, count along the chain named. Read-outs that look alike come from different tables or passages of the source.

T1: 狨猴(marmoset) Tim-3蛋白 (狨猴(marmoset), UniProt F7I881 21-290)
T1 sequence: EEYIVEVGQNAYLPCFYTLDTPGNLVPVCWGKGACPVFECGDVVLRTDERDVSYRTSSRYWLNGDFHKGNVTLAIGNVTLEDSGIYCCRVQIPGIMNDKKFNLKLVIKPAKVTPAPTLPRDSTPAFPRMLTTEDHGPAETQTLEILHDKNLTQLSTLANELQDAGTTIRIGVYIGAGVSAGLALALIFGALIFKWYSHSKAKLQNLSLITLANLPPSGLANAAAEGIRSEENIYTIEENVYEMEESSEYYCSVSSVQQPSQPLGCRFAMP

B1: 人源化ab17抗体 (antibody, human IgG4 S228P, kappa, V domains shown)
VH: EVQLVESGGGLVKPGGSLRLSCAASGFTFSDYYMTWVRQAPGKGLEWVASINYDGRNTYYLDSLKSRFTISRDNAKNSLYLQMNSLRAEDTAVYYCARGYYYYGSSPNYFDYWGQGTLVTVSS
VL: DIQMTQSPSSLSASVGDRVTITCRASENIYSYLTWYQQKPGKSPKLLVYNAKTLAEGVPSRFSGSGSGTQFTLTISSLQPEDFATYYCQQHYGTPLTFGQGTKLEIKR
notes: Humanized, hIgG4-kappa
B2: 人源化ab23抗体 (antibody, human IgG4 S228P, kappa, V domains shown)
VH: B1 VH with S78I
VL: B1 VL with T72S, T85N
notes: Humanized, hIgG4-kappa
B3: 人源化ab30抗体 (antibody, human IgG4 S228P, kappa, V domains shown)
VH: B1 VH with A49S
VL: B1 VL with T72S, T85N
notes: Humanized, hIgG4-kappa
B4: 人源化ab24抗体 (antibody, human IgG4 S228P, kappa, V domains shown)
VH: B1 VH with S78I
VL: B1 VL
notes: Humanized, hIgG4-kappa
B5: 人源化ab18抗体 (antibody, human IgG4 S228P, kappa, V domains shown)
VH: B1 VH
VL: B1 VL with S43A, V48I, Q70D
notes: Humanized, hIgG4-kappa
B6: mab15-c (嵌合抗体, hIgG4-κ) (antibody, V domains shown)
VH: EVKLVESEGGLVQPGSSMKLSCTASGFTFSDYYMTWVRQVPEKGLEWVASINYDGRNTYYLDSLKSRFIISRDNAKNILYLQMSSLKSEDTATYYCARGYYYYGSSPNYFDYWGQGTTLTVSS
VL: DIQMTQSPASLSASVGETVTITCRASENIYSYLTWYQQKQGKSPQLLVYNAKTLAEGVPSRFSGSGSGTQFSLRINSLQPEDFGNYYCQQHYGTPLTFGAGTKLELKR
notes: Chimeric antibody: mab15 variable regions with human IgG4 / kappa constant regions
B7: 人源化ab16 抗体 (antibody, human IgG4 S228P, kappa, V domains shown)
VH: B1 VH
VL: B1 VL with T72S, T85N
notes: Humanized, hIgG4-kappa
B8: 人源化ab32抗体 (全人源化抗体) (antibody, human IgG4 S228P, kappa, V domains shown)
VH: B1 VH with A49S
VL: B1 VL with S43A, V48I, Q70D
notes: Fully humanized (no back mutations), hIgG4-kappa
B9: ABTIM3 (阳性对照抗体) (antibody, V domains shown)
VH: QVQLQQPGAELVKPGASVKMSCKASGYTFTSYNMHWIKQTPGQGLEWIGDIYPGNGDTSYNQKFKGKATLTADKSSSTVYMQLSSLTSEDSAVYYCARVGGAFPMDYWGQGTSVTVSS
VL: DIVLTQSPASLAVSLGQRATISCRASESVEYYGTSLMQWYQQKPGQPPKLLIYAASNVESGVPARFSGSGSGTDFSLNIHPVEEDDIAIYFCQQSRKDPSTFGGGTKLEIK

How the values were obtained:
[1] = biological target: T2, 人TIM-3 (recombinant antigen of the ELISA of Example 3: TIM-3-hFc captured on goat-anti-hFc, or Tim-3-his … (human, UniProt Q8TDQ0 22-202)); assay: ELISA on human TIM-3 (Example 3)
T2 construct: extracellular domain; also called 人TIM-3抗原; not shown: a His tag instead if Tim-3-his was coated

[2] = biological target: T2, 人TIM-3 (recombinant antigen of the …); assay: ELISA on human TIM-3, against ABTIM3 as reference
[3] = biological target: T3, 人Tim-3 (antigen, analyte of the Biacore assay of Example 7) (human, UniProt Q8TDQ0 22-199); assay: SPR, Biacore T200, antibody captured on Protein A, TIM-3 as analyte, 1:1 Langmuir
T3 construct: Antibody captured on Protein A chip, antigen TIM-3 flowed at 0-30 nM; also called 抗原TIM-3

[4] = biological target: T2, 人TIM-3 (recombinant antigen of the …); assay: ELISA on human TIM-3 (Example 3); remark: listed apart in the source
[5] = biological target: T4, 人Tim-3 on CHO-K1 hTim-3+ cells (human, UniProt Q8TDQ0 22-301); assay: cell ELISA on fixed CHO-K1 hTim-3+ cells (Example 2)
T4 construct: whole, on cells; Mature protein 22-301; also called hTim-3+细胞; 人Tim-3+细胞

猕猴(Macaca)Tim-3蛋白 [6] = biological target: 猕猴(Macaca)Tim-3蛋白 (猕猴(Macaca)); assay: ELISA, against ABTIM3 as reference
猕猴(Macaca)Tim-3蛋白 [7] = biological target: 猕猴(Macaca)Tim-3蛋白 (猕猴(Macaca)); assay: ELISA (method of Example 3), Fig. 4a
[8] = biological target: T3, 人Tim-3 (antigen, analyte of the Biacore …); assay: SPR, Biacore, method of Example 7
狨猴(marmoset) Tim-3蛋白 = biological target: T1, 狨猴(marmoset) Tim-3蛋白; assay: ELISA (method of Example 3), Fig. 4b

| Binder | EC50 [1] [nM] | EC50 [5] [nM] | other results |
| --- | --- | --- | --- |
| B1 | 0.212 |  |  |
| B2 | 0.21 |  |  |
| B3 | 0.233 |  |  |
| B4 | 0.243 |  |  |
| B5 | 0.198 |  |  |
| B6 | 0.183 |  | fold better than the reference antibody (ratio of EC50, reference/mab15-c) [2]: 2.38 fold; Kd [3]: 0.31 nM; koff [3]: 0.000106 s⁻¹; kon [3]: 344000 M⁻¹ s⁻¹; EC50 [4]: 0.158 nM |
| B7 | 0.145 | 0.151 |  |
| B8 | 0.184 | 0.112 | fold weaker than the positive control antibody (猕猴(Macaca)Tim-3蛋白 [6]): ~100 fold; EC50 (猕猴(Macaca)Tim-3蛋白 [7]): 11 nM; koff [8]: 0.000296 s⁻¹ |
| B9 |  | 0.15 to 0.23 | EC50 (猕猴(Macaca)Tim-3蛋白 [7]): 0.14 nM; EC50 [4]: 0.376 nM; EC50 (狨猴(marmoset) Tim-3蛋白): 0.4 nM |
